Results as given in patent publication US20170137514A1 (Bristol-Myers Squibb, published 2017).
Residue numbers refer to the chain shown, from its start. Numbers in names are those of the source.

T1: human LAG-3 on activated Hu CD4+ T cells
T1 construct: differs from m5, which is LAG-3 transduced into 3A9 cells; also called native human LAG-3
T1 chain: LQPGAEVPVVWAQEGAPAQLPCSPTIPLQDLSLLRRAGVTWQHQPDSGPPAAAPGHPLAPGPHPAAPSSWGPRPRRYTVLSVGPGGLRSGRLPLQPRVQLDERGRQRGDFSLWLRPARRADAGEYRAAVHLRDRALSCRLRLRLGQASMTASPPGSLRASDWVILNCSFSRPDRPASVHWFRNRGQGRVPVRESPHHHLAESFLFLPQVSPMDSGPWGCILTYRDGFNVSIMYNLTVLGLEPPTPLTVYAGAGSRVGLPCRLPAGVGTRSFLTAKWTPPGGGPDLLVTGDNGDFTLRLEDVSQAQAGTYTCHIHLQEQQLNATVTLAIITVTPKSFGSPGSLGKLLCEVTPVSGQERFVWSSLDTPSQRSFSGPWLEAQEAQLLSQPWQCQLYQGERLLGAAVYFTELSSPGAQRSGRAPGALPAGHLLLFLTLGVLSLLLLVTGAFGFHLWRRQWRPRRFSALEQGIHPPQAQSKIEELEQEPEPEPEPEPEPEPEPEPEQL

T2: soluble human LAG-3/Fc antigen (human, UniProt P18627 23-450)
T2 construct: also called huLAG-3-Fc; not shown: Fc part of the fusion
T2 sequence: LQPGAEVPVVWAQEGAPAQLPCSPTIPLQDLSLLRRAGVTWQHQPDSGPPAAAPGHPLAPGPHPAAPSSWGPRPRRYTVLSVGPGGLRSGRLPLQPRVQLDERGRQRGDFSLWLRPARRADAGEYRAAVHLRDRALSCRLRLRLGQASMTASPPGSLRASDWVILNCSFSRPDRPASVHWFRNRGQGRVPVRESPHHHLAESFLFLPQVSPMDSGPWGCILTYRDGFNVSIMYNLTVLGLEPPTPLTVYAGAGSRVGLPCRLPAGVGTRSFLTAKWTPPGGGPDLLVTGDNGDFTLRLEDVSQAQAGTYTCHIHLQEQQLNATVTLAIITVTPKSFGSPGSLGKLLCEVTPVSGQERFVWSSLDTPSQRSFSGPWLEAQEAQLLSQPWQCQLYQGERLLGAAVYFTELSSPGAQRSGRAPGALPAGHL

B1: LAG3.6-G4P (antibody, V domains shown)
VH: QVQLQQWGAGLLKPSETLSLTCAVYGGSFSDYYWNWIRQPPGKGLEWIGEIIHSGSTNSNPSLKSRVTLSLDTSKNQFSLKLRSVTAADTAVYYCAFGYSDYEYNWFDPWGQGTLVTVSS
VL: EIVLTQSPATLSLSPGERATLSCRASQSISSYLAWYQQKPGQAPRLLIYDASNRATGIPARFSGSGSGTDFTLTISSLEPEDFAVYYCQQRSNWPLTFGQGTNLEIKR
notes: also called var2; copies: 2 + 2
B2: LAG3.8 antibody variant of LAG3.1 (25F7) (antibody, V domains shown)
VH: B1 VH with I52N, S54I, S56N
VL: B1 VL
notes: It was made by site-directed mutagenesis of the LAG3.1 VH
B3: antibody 25F7 (LAG3.1), anti-human LAG-3 human monoclonal antibody (antibody, human IgG4 S228P, kappa, V domains shown)
VH: B1 VH with I52N, S54N, S56N
VL: B1 VL
notes: The heavy chain is human IgG4 with S228P; also called antibody LAG3.1
B4: LAG3.7-G4P (antibody, V domains shown)
VH: B1 VH with I52N, S54G, S56G
VL: B1 VL
notes: also called var3; copies: 2 + 2

Experiments:
[1] = molecular target: T1, human LAG-3 on activated Hu CD4+ T cells; assay: flow cytometry on anti-CD3/anti-CD28-activated human CD4+ T cells (native LAG-3), PE anti-human Fc detection, FL2 GMFI
Procedure: (§1) To test the ability of the antibody variants to bind to native human LAG-3 on the surface of activated human T cells, normal healthy donor peripheral blood mononuclear cells were stimulated in 15 cm tissue culture plates at a density of 2×10e6 cells/mL, with a combination of anti-CD3 (eBioscience, Cat #16-0037-85) and anti-CD28 (BD Bioscience, Cat #555725) antibodies present in solution at 5 μg/mL and 3 μg/mL, respectively. Following three days of stimulation cells were harvested, washed 1× with 1×PFAE buffer (1×PBS+2% FBS, 0.02% sodium azide, 2 mM Na EDTA), and resuspended in 1×PFAE buffer for staining.
(§2) For the binding reaction, 100 μl of this diluted antibody mixture was added to 2×10⁵ cells and the mixture was incubated on at 4° C. for 30 minutes. The cells were then washed two times with 1×PFAE buffer. A 1:200 dilution of PE-labeled goat anti-human Fcγ-specific antibody (Jackson ImmunoResearch, Cat. #109-116-170) was added and the mixture was incubated for 30 minutes at 4° C., followed by washing twice with cold 1×PFAE buffer. After the final wash, 150 μl of cold 1×PFAE was added to each solution and analysis of antibody binding was carried out by flow cytometry using a FACSCanto flow cytometer (BD Bioscience).

[2] = molecular target: T2, soluble human LAG-3/Fc antigen; assay: BIACORE (surface plasmon resonance) with soluble human LAG-3/Fc antigen
[3] = molecular target: T2, soluble human LAG-3/Fc antigen; assay: Biacore (SPR); antibody kept in PBS
[4] = molecular target: T2, soluble human LAG-3/Fc antigen; assay: Biacore (SPR); antibody after accelerated stress at pH 8 (5 days, 40 C)
[5] = molecular target: T1, human LAG-3 on activated Hu CD4+ T cells; assay: flow cytometry on activated human CD4+ T cells (donor WB1907), FL2 GMFI; antibody after 5 days at 40 °C in pH 8.0 ammonium bicarbonate
Procedure: as §1, §2

[6] = molecular target: T1, human LAG-3 on activated Hu CD4+ T cells; assay: flow cytometry on activated human CD4+ T cells (donor WB1907), FL2 GMFI; forced stability study, sample not marked pH 8
Procedure: as §1, §2

Row | Binder | EC50 [1] | Kd [2] | koff [2] | kon [2] | Kd [3] | koff [3] | kon [3] | Kd [4] | koff [4] | kon [4] | EC50 [5] | EC50 [6] | EC50 (read off the curve) [1]
1 | B1 | 0.21 nM | 0.66 nM | 0.000777 s⁻¹ | 1.18e+06 M⁻¹ s⁻¹ |  |  |  |  |  |  |  |  | 
2 | B2 |  |  |  |  | 0.25 nM | 0.000368 s⁻¹ | 1.47e+06 M⁻¹ s⁻¹ | 0.25 nM | 0.000402 s⁻¹ | 1.62e+06 M⁻¹ s⁻¹ | 0.21 nM | 0.24 nM | 
3 | B3 | 0.13 nM | 0.27 nM |  |  | 0.21 nM |  |  | 0.2 nM |  |  | 0.2 nM |  | 
4 | B4 |  |  |  | 1.04e+06 M⁻¹ s⁻¹ |  |  |  |  |  |  |  |  | ~0.3 nM
